In US20240076386A1 (Pfizer, published 2024):

Assays:
[1] = target: T1, mouse E-selectin extracellular domain with 10 His purification tail (mouse, UniProt Q00690 22-557); experiment: antigen binding ELISA, HRP detection
T1 construct: also called soluable mouse E-selectin extracellular domain; muE-Selctin
T1 sequence: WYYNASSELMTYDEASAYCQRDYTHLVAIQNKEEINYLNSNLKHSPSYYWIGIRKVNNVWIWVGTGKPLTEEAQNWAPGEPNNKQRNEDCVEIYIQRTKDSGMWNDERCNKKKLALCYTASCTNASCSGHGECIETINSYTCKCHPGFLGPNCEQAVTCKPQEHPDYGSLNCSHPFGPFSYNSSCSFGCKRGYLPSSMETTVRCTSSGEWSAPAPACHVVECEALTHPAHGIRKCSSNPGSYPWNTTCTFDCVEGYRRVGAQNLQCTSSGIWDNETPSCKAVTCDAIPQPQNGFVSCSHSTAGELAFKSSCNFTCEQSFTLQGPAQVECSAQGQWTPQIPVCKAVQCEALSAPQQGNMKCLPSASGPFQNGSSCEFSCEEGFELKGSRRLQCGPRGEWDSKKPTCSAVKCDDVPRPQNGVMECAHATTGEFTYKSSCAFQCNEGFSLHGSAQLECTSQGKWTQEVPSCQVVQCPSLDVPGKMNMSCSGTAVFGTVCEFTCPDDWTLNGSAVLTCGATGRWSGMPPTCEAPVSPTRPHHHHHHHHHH
Description: 384-well Maxisorp plates were used to capture the human and mouse His-tagged recombinant E-selectin polypeptides. The polypeptides were incubated with chimeric antibodies of varying concentrations and detected with HRP-labeled anti-human IgG1 antibodies.

[2] = target: T1, mouse E-selectin extracellular domain …; experiment: AlphaLISA competition vs sialyl Lewis A-PAA-biotin
Description: The neutralization ability of anti-E-selectin antibodies was measured in an AlphaLISA homogenous competition assay. […] This was incubated at room temperature for 15 minutes, followed by addition of 1.4 μL of human, mouse or cynomolgus monkey E-selectin added to a final concentration of 7 nM. This was again incubated at room temperature for 15 minutes. To this, 1.4 μL AlphaLISA beads was added (Ni-donor/SA-acceptor) for a final assay concentration of 10 μg/mL. This was incubated in the dark at room temperate for at least 10 hours. The plates were then read using the AlphaLISA protocol (Envision).

[3] = target: T1, mouse E-selectin extracellular domain …; experiment: SPR, antibody captured, E-selectin analyte
Description: To characterize binding of antibodies to human, cynomolgus monkey, and mouse E-selectin, an antibody was diluted to 0.5 μg/mL in HBS-EP+ and captured by the anti-human IgG immobilized on flow cells 2, 3 and 4 for 30 seconds to 1 minute at a flow rate of 10 μL/minute to achieve a capture level of 70 to 300 RU. Flow cell 1 was used as a reference surface. […] HBS-EP+ buffer cycles collected for each captured antibody were used for double-referencing (Myszka D G. J. Mol. Recognition 1999; 12(5):279-84). At the end of each cycle, the entire anti-IgG surface was regenerated by a 30 second pulse of 3 M MgCl₂ and a 30 second pulse of ionic buffer (1.83 M MgCl₂, 0.92 M Urea, 1.83 M Guanidine HCl, pH 7.4) (Andersson K. Analy. Chem. 1999; 71(13): 2475-81). Kinetic assays were conducted at 25° C. at a collection rate of 10 Hertz (Hz) on a BIAcore™ T200 instrument (GE Healthcare). Rate constants and affinities were determined by fitting the data to a 1:1 binding model in BIAcore™ T200 Evaluation software version 3.0 (GE Healthcare).

EC50 [1]: 0.02 nM
EC50 [2]: 1 nM
Kd [3]: 1.2 nM
koff [3]: 0.000231 s⁻¹
kon [3]: 192000 M⁻¹ s⁻¹
t½ [3]: 50.2 min
B1: anti-E-selectin antibody 0027 chimera (antibody, human IgG1, kappa, V domains shown)
VH: EVHLHQSGPELGRPGSSVKISCKASGYTFTDYVMNWVRQSPGQGLEWIGWINPEDYSFDSGEKFLERATLTAATSSNTVYIQLSGLTSDDTATYFCVRGGLPGDWFAYWGQGTLVTVSS
VL: DIQMTQSPSFLSASVGDRITINCKTSQNINRYLNWFQQKLGEPPKLLIYNANSLQADIPSRFSGSGSGTDFTLTITSLQPEDVATYFCLQHHFWPYTFGAGTKLELRR
notes: rat VH/VL on effector-null human IgG1 (L234A, L235A, G237A, EU) and human kappa; directed to mouse E-selectin
